From the supplement of paper PMC9112550, “Optimization of the antimicrobial peptide Bac7 by deep mutational scanning” (BMC Biology, 2022)

Test system: Escherichia coli TOP10
Test: shrunken log2 fold change of peptide-encoding DNA abundance (4.5 h post-induction vs induction); higher = less antimicrobial activity (less host growth inhibition)
Details: time post-induction: 4.5 h; library: site-saturation at positions 5, 18, 19, 20
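Further: peptides expressed intracellularly from a pBAD plasmid library in pooled LB shake-flask culture, induced with 0.3% L-arabinose, DNA abundance read by NGS, three biological replicates, DESeq2 with apeglm shrinkage.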

| Sequence | shrunken log2 fold change |
| --- | --- |
| RRIRKRPPRLPRPRPRPMDHPRP | 0.34 |
| RRIRWRPPRLPRPRPRPIYNPRP | -0.896 |
| RRIRMRPPRLPRPRPRPQDTPRP | -0.0435 |
| RRIRQRPPRLPRPRPRPKYNPRP | -0.879 |
| RRIRARPPRLPRPRPRPCWKPRP | -0.16 |
| RRIRIRPPRLPRPRPRPYTHPRP | -1.09 |
| RRIRGRPPRLPRPRPRPDSRPRP | 0.122 |
| RRIRTRPPRLPRPRPRPEIHPRP | -0.0341 |
| RRIRTRPPRLPRPRPRPKYFPRP | -0.444 |
| RRIRKRPPRLPRPRPRPGYRPRP | 0.129 |
| RRIRHRPPRLPRPRPRPTEDPRP | -0.00383 |
| RRIRMRPPRLPRPRPRPAARPRP | 0.975 |
| RRIRDRPPRLPRPRPRPWWAPRP | 0.61 |
| RRIRGRPPRLPRPRPRPPGWPRP | 1.04 |
| RRIRHRPPRLPRPRPRPGTYPRP | -0.0156 |
| RRIRCRPPRLPRPRPRPQPTPRP | 0.319 |
| RRIRVRPPRLPRPRPRPQVWPRP | 0.345 |
| RRIRSRPPRLPRPRPRPDNVPRP | 4.24 |
| RRIRARPPRLPRPRPRPIAPPRP | 0.53 |
| RRIRARPPRLPRPRPRPSQGPRP | -0.168 |
| RRIRTRPPRLPRPRPRPPQKPRP | 0.0412 |
| RRIRVRPPRLPRPRPRPYTAPRP | -0.649 |

| Sequence | shrunken log2 fold change |
| --- | --- |
| RRIRGRPPRLPRPRPRPFHIPRP | -0.14 |
| RRIRLRPPRLPRPRPRPFLFPRP | -0.34 |
| RRIRPRPPRLPRPRPRPPQLPRP | 0.378 |
| RRIRYRPPRLPRPRPRPKDFPRP | 0.00489 |
| RRIRHRPPRLPRPRPRPTSPPRP | -0.0524 |
| RRIRPRPPRLPRPRPRPNSGPRP | 0.0788 |
| RRIRTRPPRLPRPRPRPKCMPRP | -0.134 |
| RRIRARPPRLPRPRPRPRPHPRP | 0.513 |
| RRIRFRPPRLPRPRPRPDYKPRP | -0.492 |
| RRIRDRPPRLPRPRPRPDKQPRP | -0.129 |
| RRIRWRPPRLPRPRPRPINAPRP | 0.252 |
| RRIRLRPPRLPRPRPRPCNAPRP | -0.129 |
| RRIRVRPPRLPRPRPRPFMEPRP | -0.265 |
| RRIRDRPPRLPRPRPRPWGRPRP | 0.258 |
| RRIRVRPPRLPRPRPRPPMPPRP | 0.368 |
| RRIRGRPPRLPRPRPRPLADPRP | 1.68 |
| RRIRMRPPRLPRPRPRPYAHPRP | 0.013 |
| RRIRYRPPRLPRPRPRPKTKPRP | -0.295 |
| RRIRMRPPRLPRPRPRPTHFPRP | 0.86 |
| RRIRYRPPRLPRPRPRPDSYPRP | -0.0836 |
| RRIRQRPPRLPRPRPRPHGTPRP | -0.0865 |
| RRIRNRPPRLPRPRPRPGECPRP | 0.266 |

| Sequence | shrunken log2 fold change |
| --- | --- |
| RRIRSRPPRLPRPRPRPMDVPRP | -0.02 |
| RRIRKRPPRLPRPRPRPMFYPRP | -0.169 |
| RRIRLRPPRLPRPRPRPSPHPRP | -0.242 |
| RRIRTRPPRLPRPRPRPIQCPRP | -0.521 |
| RRIRVRPPRLPRPRPRPYKIPRP | -0.726 |
| RRIRQRPPRLPRPRPRPYNPPRP | -0.529 |
| RRIRMRPPRLPRPRPRPALRPRP | 0.851 |
| RRIRTRPPRLPRPRPRPYWWPRP | -0.554 |
| RRIRSRPPRLPRPRPRPIIMPRP | -0.35 |
| RRIRPRPPRLPRPRPRPTKRPRP | 0.265 |
| RRIRGRPPRLPRPRPRPNDCPRP | -0.04 |
| RRIRQRPPRLPRPRPRPPYIPRP | -0.449 |
| RRIRYRPPRLPRPRPRPMHEPRP | -0.405 |
| RRIRQRPPRLPRPRPRPWSNPRP | -0.00145 |
| RRIRNRPPRLPRPRPRPFNIPRP | 0.0411 |
| RRIRQRPPRLPRPRPRPETDPRP | -0.167 |
| RRIRYRPPRLPRPRPRPTVDPRP | 0.0546 |
| RRIRCRPPRLPRPRPRPMTFPRP | -0.0603 |
| RRIRERPPRLPRPRPRPPPFPRP | 0.313 |
| RRIRHRPPRLPRPRPRPWFKPRP | 0.0141 |
| RRIRARPPRLPRPRPRPDAKPRP | 0.338 |
| RRIRVRPPRLPRPRPRPVNSPRP | -0.184 |

| Sequence | shrunken log2 fold change |
| --- | --- |
| RRIRFRPPRLPRPRPRPPMQPRP | 0.115 |
| RRIRQRPPRLPRPRPRPLQKPRP | -0.0062 |
| RRIRKRPPRLPRPRPRPQAWPRP | 0.314 |
| RRIRWRPPRLPRPRPRPWYWPRP | -0.209 |
| RRIRHRPPRLPRPRPRPTEGPRP | -0.00285 |
| RRIRNRPPRLPRPRPRPNSHPRP | -0.858 |
| RRIRIRPPRLPRPRPRPYEHPRP | -0.0784 |
| RRIRHRPPRLPRPRPRPASRPRP | 0.103 |
| RRIRHRPPRLPRPRPRPLFCPRP | -0.604 |
| RRIRLRPPRLPRPRPRPGHVPRP | 0.0522 |
| RRIRSRPPRLPRPRPRPAWAPRP | 0.333 |
| RRIRFRPPRLPRPRPRPKAMPRP | 0.23 |
| RRIRLRPPRLPRPRPRPGHSPRP | -0.0313 |
| RRIRWRPPRLPRPRPRPIRLPRP | -0.268 |
| RRIRRRPPRLPRPRPRPVSWPRP | 0.849 |
| RRIRARPPRLPRPRPRPPFKPRP | 0.368 |
| RRIRKRPPRLPRPRPRPHNLPRP | 0.0314 |
| RRIRNRPPRLPRPRPRPQYCPRP | -0.186 |
| RRIRLRPPRLPRPRPRPGALPRP | 0.0546 |
| RRIRMRPPRLPRPRPRPDHKPRP | 0.0228 |
| RRIRYRPPRLPRPRPRPSRGPRP | -0.0776 |
| RRIRYRPPRLPRPRPRPIIGPRP | -0.178 |

| Sequence | shrunken log2 fold change |
| --- | --- |
| RRIRCRPPRLPRPRPRPTPMPRP | 0.534 |
| RRIRGRPPRLPRPRPRPRHAPRP | 1.05 |
| RRIRKRPPRLPRPRPRPLAHPRP | 0.551 |
| RRIRLRPPRLPRPRPRPTRIPRP | -0.141 |
| RRIRMRPPRLPRPRPRPCACPRP | 0.0487 |
| RRIRQRPPRLPRPRPRPCHTPRP | -0.207 |
| RRIRYRPPRLPRPRPRPCMWPRP | 0.0465 |
| RRIRCRPPRLPRPRPRPYYHPRP | -1.28 |
| RRIRTRPPRLPRPRPRPDQIPRP | -0.0138 |
| RRIRTRPPRLPRPRPRPFNHPRP | 0.00676 |
| RRIRHRPPRLPRPRPRPYQQPRP | -0.032 |
| RRIRRRPPRLPRPRPRPTILPRP | -0.0149 |
| RRIRHRPPRLPRPRPRPWMRPRP | 0.101 |
| RRIRSRPPRLPRPRPRPSNIPRP | -0.484 |
| RRIRYRPPRLPRPRPRPKFLPRP | -0.139 |
| RRIRERPPRLPRPRPRPQQGPRP | -0.219 |
| RRIRIRPPRLPRPRPRPYSRPRP | -0.0136 |
| RRIRYRPPRLPRPRPRPYFFPRP | -0.792 |
| RRIRMRPPRLPRPRPRPPILPRP | 0.0619 |
| RRIRTRPPRLPRPRPRPWFEPRP | 0.647 |
| RRIRIRPPRLPRPRPRPPGNPRP | -0.233 |
